Patent US20140248303A1 (ST JUDE CHILDREN S RESEARCH HOSPITAL, published 2014)

Biological target: T1, 37/67 laminin receptor (LR) (Homo sapiens (Human), UniProt P08865 2-295)
T1 construct: also called LRP
Experiment: adhesion of construct-labeled latex microspheres to fixed TNF-activated RBCEC6 cells

Binder | bead adherence to RBCEC6 cells, % (compared with full length CbpA-NR12 beads) [%] | binding result
CbpA-R12 (construct containing domain 1 and domain 2) (other, On latex microspheres) EPGEKVAEAKKKVEEAEKKAKDQKEEDRRNYPTITYKTLELEIAESDVEVKKAELELVKVKANEPRDEQKIKQAEAEVESKQAEATRLKKIKTDREEAEEEAKRRADAKEQGKPKGRAKRGVPGELATPDKKENDAKSSDSSVGEETLPSPSLKPEKKVAEAEKKVEEAKKKAEDQKEEDRRNYPTNTYKTLELEIAESDVEVKKAELELVKEEAKEPRNEEKVKQAKAEVESKKAEATRLEKIKTDRKKAEEEAKRKAAEEDKVKEK | 226 | –
CbpA-N (domain N) (other, On latex microspheres) ENEGATQVPTSSNRANESQAEQGEQPKKLDSERDKARKEVEEYVKKIVGESYAKSTKKRHTITVALVNELNNIKNEYLNKIVESTSESQLQILMMESRSKVDEAVSKFEKDSSSSSSSDSSTKPEASDTAKPNKPT | 23 | no binding
CbpA-R2 (other) PEKKVAEAEKKVEEAKKKAEDQKEEDRRNYPTNTYKTLELEIAESDVEVKKAELELVKEEAKEPRNEEKVKQAKAEVESKKAEATRLEKIKTDRKKAEEEAKRKAAEEDKVKEKP | 6 | no binding
